For the test, the target named is T1, FlAsH-tagged Met1-diUb (UniProt P0CG48 1-76; P0CG48 1-71, Lumio Green (FlAsH) on the C-terminal WCCPGCC motif).
T1 construct: ubiquitin, distal moiety, residues 1-76, joined by Gly76 in a peptide bond to Met1 of the proximal moiety; ubiquitin, proximal moiety; a C-terminal WCCPGCC motif replaces aa 72-76, so that residues 1-71 are left; Construct described in Ye et al., 2011; Chain: Ub(1-76)-Ub(1-71)-WCCPGCC; also called FlAsH-tagged Met1-diUb WT; Met1-linked diUb; source: expressed from pET17 plasmid, purified as …
Description: fluorescence polarisation; FlAsH-tagged diUb fixed (10 μl of 100 nM plus 10 μl protein), OTULIN C129A variants serially diluted; 20 mM Tris pH 7.4, 100 mM NaCl, 5 mM β-mercaptoethanol, 0.1 mg/ml BSA; one-site binding model; triplicate. The settings on record: both partners purified. In general terms: In fluorescence polarisation assays a small probe gives low polarisation when free and higher when bound to something large.

The values that follow come from paper PMC3690481, “OTULIN Antagonizes LUBAC Signaling by Specifically Hydrolyzing Met1-Linked Polyubiquitin” (Cell, 2013).

B1: OTULINcat C129A (aa 80–352) (domain or fragment, human, UniProt Q96BN8 80-352, looked up)
chain: LSVAPEMDIMDYCKKEWRGNTQKATCMKMGYEEVSQKFTSIRRVRGDNYAALRATLFQAMSQAVGLPPWLQDPELMLLPEKLISKYNWIKQWKLGLKFDGKNEDLVDKIKESLTLLRKKWAGLAEMRTAEARQIACDELFTNEAEEYSLYEAVKFLMLNRAIELYNDKEKGKEVPFFSVLLFARDTSNDPGQLLRNHLNQVGHTGGLEQVEMFLLAYAVRHTIQVYRLSKYNTEEFITVYPTDPPKDWPVVTLIAEDDRHYNIPVRVCEETSL
notes: FAM105B/OTULIN, human, catalytic OTU domain aa 80-352, catalytic Cys129 changed to Ala; Expressed from pOPIN-F. PDB 3ZNV is the wild-type parent of the same limits; also called OTULIN (80–352) C129A; OTULIN 80-352 C129A; source: E. coli Rosetta2 (DE3) pLacI, purified (Ni2+ resin, 3C protease, anion exchange, SEC)
By Kd is commonly meant the concentration at which binding is half-saturated. Regarding B1, the Kd worked out at 196 nM.

B2: OTULIN C129A TQK100-102AAA (enzyme, human, UniProt Q96BN8 1-352, looked up)
chain: MSRGTMPQPEAWPGASCAETPAREAAATARDGGKAAASGQPRPEMQCPAEHEEDMYRAADEIEKEKELLIHERGASEPRLSVAPEMDIMDYCKKEWRGNAAAATCMKMGYEEVSQKFTSIRRVRGDNYAALRATLFQAMSQAVGLPPWLQDPELMLLPEKLISKYNWIKQWKLGLKFDGKNEDLVDKIKESLTLLRKKWAGLAEMRTAEARQIACDELFTNEAEEYSLYEAVKFLMLNRAIELYNDKEKGKEVPFFSVLLFARDTSNDPGQLLRNHLNQVGHTGGLEQVEMFLLAYAVRHTIQVYRLSKYNTEEFITVYPTDPPKDWPVVTLIAEDDRHYNIPVRVCEETSL
notes: also called triple mutant TQK100-102 to AAA; source: E. coli Rosetta2 (DE3) pLacI, purified (Ni2+ resin, 3C protease, SEC)
With B2, the binding result was “binds”.
